Article PMC7824274, “Separation of Coiled-Coil Structures in Lamin A/C Is Required for the Elongation of the Filament” (Cells, 2020)
Where a chain is given by its changes, count along the chain named. Values belong to the binder of their own block, whether it stands above or below them.

Columns and labels:
Conditions in all cases: both partners purified
[1] = molecular target: T1, lamin A/C 250-400 fragment, wild type, tag-free (human, UniProt P02545 250-400); assay: pull-down; His-tagged lamin 1-125 (wild type or L38C, L42C) on Ni-NTA resin, lamin 250-400 fragments (wild type or cysteine mutants) as prey; oxidized (0.5 mM GSSG) and reducing (5 mM TCEP) conditions; SDS-PAGE
T1 construct: lamin A/C, human, residues 250-400 (C-terminal part of coil 2); His-tag cleaved with TEV protease; also called lamin 250-400; coil 2 fragment; source: E. coli BL21 (DE3), purified (cobalt-Talon, TEV cleavage, HiTrap Q, SEC); not shown: His-tag, N-terminal, cleaved
T1 sequence (looked up): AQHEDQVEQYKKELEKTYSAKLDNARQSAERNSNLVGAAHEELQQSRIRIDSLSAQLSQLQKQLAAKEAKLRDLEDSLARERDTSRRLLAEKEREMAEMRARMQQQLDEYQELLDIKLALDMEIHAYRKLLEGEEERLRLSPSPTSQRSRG

[2] = molecular target: T2, lamin A/C 250-400 fragment, K316C (human, UniProt P02545 250-400, K316C); assay: as above
T2 construct: lamin A/C, human, residues 250-400 with K316C; the methods say that preys were His-tag cleaved; also called lamin 250-400 K316C; source: E. coli BL21 (DE3), purified (cobalt-Talon, TEV cleavage, HiTrap Q, SEC); not shown: His-tag, N-terminal, cleaved
T2 sequence (looked up): T1 sequence (looked up) with K67C

[3] = molecular target: T3, lamin A/C 250-400 fragment, Y267C (human, UniProt P02545 250-400, Y267C); assay: as above
T3 construct: lamin A/C, human, residues 250-400 with Y267C; the methods say that preys were His-tag cleaved; also called lamin 250-400 Y267C; source: E. coli BL21 (DE3), purified (cobalt-Talon, TEV cleavage, HiTrap Q, SEC); not shown: His-tag, N-terminal, cleaved
T3 sequence (looked up): T1 sequence (looked up) with Y18C

[4] = molecular target: T4, His-tagged lamin A/C 250-400 fragment, wild type (human, UniProt P02545 250-400); assay: pull-down; His-tagged lamin 250-400 fragments on Ni-NTA resin with the lamin 1-125 fragment; nonreducing (oxidized) condition; SDS-PAGE
T4 construct: lamin A/C, human, residues 250-400 (C-terminal part of coil 2); pProEx-HTa vector: a TEV protease cleavage site stands between the His-tag and the lamin residues; also called His-lamin 250-400 WT; source: E. coli BL21 (DE3), purified (cobalt-Talon, HiTrap Q, SEC); not shown: His-tag, N-terminal, kept
T4 sequence (looked up): T1 sequence (looked up)

[5] = molecular target: T5, His-tagged lamin A/C 250-400 fragment, L362C (human, UniProt P02545 250-400, L362C); assay: pull-down; His-tagged lamin 250-400 fragments on Ni-NTA resin with the lamin 1-125 fragment; reducing condition; SDS-PAGE
T5 construct: lamin A/C, human, residues 250-400 with L362C; also called His-lamin 250-400 L362C; source: E. coli BL21 (DE3), purified (cobalt-Talon, HiTrap Q, SEC); not shown: His-tag, N-terminal, kept
T5 sequence (looked up): T1 sequence (looked up) with L113C

binding result [1]: binds
binding result [2]: binds
binding result [3]: binds
B1: His-tagged lamin A/C 1-125 fragment, wild type (domain or fragment, human, UniProt P02545 1-125, looked up)
chain: METPSQRRATRSGAQASSTPLSPTRITRLQEKEDLQELNDRLAVYIDRVRSLETENAGLRLRITESEEVVSREVSGIKAAYEAELGDARKTLDSVAKERARLQLELSKVREEFKELKARNTKKEG
notes: pProEx-HTa vector: a TEV protease cleavage site stands between the His-tag and the lamin residues; also called coil 1a fragment; source: E. coli BL21 (DE3), purified (cobalt-Talon, HiTrap Q, SEC); not shown: His-tag, N-terminal, kept

binding result [4]: binds
binding result [5]: binds
B2: lamin A/C 1-125 fragment, wild type, prey of Figure 6b (domain or fragment, human, UniProt P02545 1-125, looked up)
chain: B1 chain
notes: the pull-down methods say that preys were His-tag cleaved lamin proteins; the purification paragraph names TEV cleavage only for lamin 250-400; also called coil 1a fragment; source: E. coli BL21 (DE3), purified (cobalt-Talon, HiTrap Q, SEC); not shown: His-tag, N-terminal, cleaved
